Laboratory results from US7018836 (UNIVERSITY OF IOWA RESEARCH FOUNDATION, dated 2006).

Target: T1, HIS-tagged human P-TEFb small subunit PITALRE (human, UniProt P50750 1-372)
T1 construct: also called HBS; HIS-tagged human kinase subunit (PITALRE)
Experiment: co-expression in baculovirus, co-recovery with the HIS-tagged small subunit from a nickel column

T1 sequence (P50750 whole entry): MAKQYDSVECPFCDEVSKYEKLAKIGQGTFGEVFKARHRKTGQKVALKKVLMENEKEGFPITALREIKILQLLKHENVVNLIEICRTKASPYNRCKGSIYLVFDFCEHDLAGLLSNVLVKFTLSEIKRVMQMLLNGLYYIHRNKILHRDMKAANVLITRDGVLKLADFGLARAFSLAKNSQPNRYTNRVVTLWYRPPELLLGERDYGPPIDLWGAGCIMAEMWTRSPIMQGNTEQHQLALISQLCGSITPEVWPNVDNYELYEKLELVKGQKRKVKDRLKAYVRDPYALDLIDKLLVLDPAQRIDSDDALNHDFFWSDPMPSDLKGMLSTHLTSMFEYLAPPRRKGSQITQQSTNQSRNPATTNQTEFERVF

B1: Drosophila P-TEFb small subunit with a HIS-tag at the carboxyl-terminus (enzyme)
chain: MAHMSHMLQQPSGSTPSNVGSSSSRTMSLMEKQKYIEDYDFPYCDESNKYEKVAKIGQGTFGEVFKAREKKGNKKFVAMKKVLMDNEKEGFPITALREIRILQLLKHENVVNLIEICRTKATATNGYRSTFYLVFDFCEHDLAGLLSNMNVKFSLGEIKKVMQQLLNGLYYIHSNKILHRDMKAANVLITKHGILKLADFGLARAFSIPKNESKNRYTNRVVTLWYRPPELLLGDRNYGPPVDMWGAGCIMAEMWTRSPIMQGNTEQQQLTFISQLCGSFTPDVWPGVEELELYKSIELPKNQKRRVKERLRPYVKDQTGCDLLDKLLTLDPKKRIDADTALNHDFFWTDPMPSDLSKMLSQHLQSMFEYLAQPRRSNQMRNYHQQLTTMNQKPQDNSMIDRVW
notes: also called DBS; Drosophila P-TEFb small (kinase) subunit; not shown: HIS-tag added to the carboxyl-terminus
B1: no binding.
